Reference: patent US20090155285A1 (Eli Lilly, published 2009)
Substitutions are numbered along the chain they refer to.

T1: mature human TGF-β2 (human, UniProt P61812 303-414)
T1 sequence: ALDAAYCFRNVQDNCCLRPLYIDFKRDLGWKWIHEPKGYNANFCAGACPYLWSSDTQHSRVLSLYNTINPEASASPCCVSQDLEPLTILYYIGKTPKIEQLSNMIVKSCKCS

T2: mature human TGF-β3 (human, UniProt P10600 301-412)
T2 sequence: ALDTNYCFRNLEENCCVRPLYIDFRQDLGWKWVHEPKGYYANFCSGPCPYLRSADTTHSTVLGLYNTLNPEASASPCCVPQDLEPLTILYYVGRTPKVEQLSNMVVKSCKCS

B1: Fab 3.A (Fab, V domains shown)
VH: QVQLVQSGAEVKKPGASVKVSCKASGYTFTSYWMNWVRQAPGQGLEWMGQIFPASGSTNYGEMFEGRVTMTTDTSTSTAYMELRSLRSDDTAVYYCARGIGNYALDAMDYWGQGTLVTVSS
VL: DIQMTQSPSSLSASVGDRVTITCRASESVDFWGNSFMHWYQQKPGKAPKLLIYLASNLESGVPSRFSGSGSGTDFTLTISSLQPEDFATYYCQQNIEDPLTFGGGTKVEIKR
notes: The mAb was made by linking the Fab to an IgG4 Fc region, so the mAb's chains are named; The heavy chain entry also holds the Fc, which is not in the Fab
B2: Fab 12.4 (Fab, V domains shown)
VH: B1 VH with S55L
VL: B1 VL with F31W
notes: as for B1
B3: Fab 12.7 (Fab, V domains shown)
VH: B1 VH with Y32E, S55L, G61N, F64Y
VL: B1 VL with W32Y
notes: as for B1
B4: Fab 12.8 (Fab, V domains shown)
VH: B1 VH with S55L, G61N
VL: B1 VL with F31W, W32Y, L54Y, I96A
notes: as for B1
B5: Fab 4.17 (Fab, V domains shown)
VH: B1 VH with A54F, G61N
VL: B1 VL with I96A
notes: as for B1
B6: 1D11.16 (antibody, from another filing, V domains shown)
VH: QVQLQQSGPELVRPGASVKLSCKASGYIFITYWMNWVKQRPGQGLEWIGQIFPASGSTNYNEMFEGKATLTVDTSSSTAYMQLSSLTSEDSAVYYCARGDGNYALDAMDYWGQGTSVTVSS
VL: DIVLTQSPASLAVSLGQRATISCRASESVDSYGNSFMHWYQQKSGQPPKLLIYLASNLESGVPARFSGSGSRTDFTLTIDPVEADDAATYYCQQNNEDPLTFGAGTKLEIK
B7: mAb 12.4 (antibody, human IgG4 S228P, kappa, V domains shown)
VH: B1 VH with S55L
VL: B1 VL with F31W
notes: Full-length monoclonal antibody, made by linking the Fab to an IgG4 Fc region
B8: mAb 3.A (antibody, human IgG4 S228P, kappa, V domains shown)
VH: B1 VH
VL: B1 VL
notes: as for B7
B9: mAb 12.7 (antibody, human IgG4 S228P, kappa, V domains shown)
VH: B1 VH with Y32E, S55L, G61N, F64Y
VL: B1 VL with W32Y
notes: as for B7
B10: mAb 4.17 (antibody, human IgG4 S228P, kappa, V domains shown)
VH: B1 VH with A54F, G61N
VL: B1 VL with I96A
notes: as for B7
B11: mAb 12.8 (antibody, human IgG4 S228P, kappa, V domains shown)
VH: B1 VH with S55L, G61N
VL: B1 VL with F31W, W32Y, L54Y, I96A
notes: as for B7

Biological target: T3, mature human TGF-β1 (human, UniProt P01137 279-390)
T3 construct: Bought protein (R&D Systems, Cat # 240-B/CF); also called TGF Beta 1; TGF-b1
T3 sequence (P01137 279-390 limits assumed): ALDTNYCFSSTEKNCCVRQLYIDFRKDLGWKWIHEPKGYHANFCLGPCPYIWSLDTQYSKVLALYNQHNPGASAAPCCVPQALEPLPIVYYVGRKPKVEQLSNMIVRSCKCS
Assay: KinExA 3000, equilibrium in solution
Protocol: (§1) A KinExA 3000 instrument (Sapidyne Inst. Inc.) measures binding kinetics. Briefly, antigen is covalently-coupled to azlactone beads and the binding of an invention free Fab to the beads is detected on the instrument. […] After incubation, free Fab in each equilibrated sample is determined on KinExA 3000 per manufacturer instructions. Kd values are determined using KinExA 3000 software. To measure kₒₙ, individual Fabs at 2 nM are mixed with 0-240 nM of antigen using the injection method according to manufacturer's instructions, and the unbound Fab is detected. The resulting data is used to calculate the kₒₙ with KinExA 3000 software. The koff is calculated using the formula K_{d=k}off/kₒₙ. Affinity data obtained under KinExA© conditions for Fab embodiments binding TGF Beta 1 are shown below in Table 1.

Binder | Kd
B1 | 15 pM
B2 | 1.55 pM
B3 | 0.09 pM
B4 | 0.22 pM
B5 | 0.28 pM

Biological target: T3, mature human TGF-β1
Assay: KinExA 3000, solution phase, antigen-coupled beads
Protocol: as §1

Binder | kon
B1 | 2.1e+07 M⁻¹ s⁻¹
B2 | 3.4e+07 M⁻¹ s⁻¹
B3 | 3.7e+06 M⁻¹ s⁻¹
B4 | 2.6e+07 M⁻¹ s⁻¹
B5 | 2.2e+07 M⁻¹ s⁻¹

Biological target: T3, mature human TGF-β1
Assay: KinExA 3000, calculated from Kd and kon
Protocol: as §1

Binder | koff
B1 | 0.00031 s⁻¹
B2 | 5.2e-05 s⁻¹
B3 | 3.4e-07 s⁻¹
B4 | 5.5e-06 s⁻¹
B5 | 6e-06 s⁻¹

Biological target: T3, mature human TGF-β1
Assay: cell-based or functional assay

Binder | HT-2 cell neutralization assay, IC50 (Mean ng/ml)
B6 | 215 ng/mL
B7 | 0.44 ng/mL
B8 | 2.62 ng/mL
B9 | 0.59 ng/mL
B10 | 0.42 ng/mL

Biological target: T1, mature human TGF-β2
Assay: cell-based or functional assay

Binder | HT-2 cell neutralization assay, IC50 (Mean ng/ml)
B6 | 574 ng/mL
B7 | 6.14 ng/mL
B8 | 51.4 ng/mL
B9 | 3.34 ng/mL
B10 | 3.65 ng/mL

Biological target: T2, mature human TGF-β3
Assay: cell-based or functional assay

Binder | HT-2 cell neutralization assay, IC50 (Mean ng/ml)
B6 | 100 ng/mL
B7 | 5.22 ng/mL
B8 | 16.9 ng/mL
B9 | 6.78 ng/mL
B10 | 15.8 ng/mL

Biological target: T3, mature human TGF-β1
Assay: BIAcore 2000 SPR, antibody captured on Protein A, TGF-β injected
Protocol: (§2) Alternate methods of measuring kinetic constants are known, for example: affinity of an invention antibody for TGF-β1 (R&D Systems, Cat # 240-B/CF), TGF-β2 (RDI, Cat #RDI-1035), and TGF-β3 (RDI, Cat # RDI-1036/CF) is measured by BIAcore® 2000. Binding affinity measurements for full-length monoclonal antibodies of the invention are determined using Biacore. Except as noted, all reagents and materials are purchased from BIAcore® AB (Upsala, Sweden). All measurements made at room temperature. Samples are dissolved in HBS-EP buffer (150 mM sodium chloride, 3 mM EDTA, 0.01% (w/v) surfactant P-20, and 10 mM HEPES, pH 7.4). Recombinant Protein A is immobilized on all four flow cells of a CM4 sensor chip at a level of 400-450 response units (RUs) using an amine coupling kit. Binding is evaluated using multiple analytical cycles. Each cycle is performed at a flow rate of 50 μL/min consisting of the steps: injection of 12 μL of antibody at 0.5 μg/mL, injection of 250 μL of TGF-β1 (starting at 5 nM and using two-fold serial dilutions to 0.13 nM for each cycle, with two injections for each concentration) followed by either a short (5 min) or long (120 min) delay for dissociation, and regeneration using two injections of 50 μL of 10 mM glycine hydrochloride, pH 1.5. Association and dissociation rates per cycle are made by fitting the biosensor data from a simple association model using ClampXP (Center for Biomolecular Interaction Analysis, Univ. of Utah) to extract the kₒₙ and koff rate constants; the equilibrium binding constant Kd is calculated from Kd=koff/kₒₙ.
(§3) When mAbs are measured using the described assay, the results are as stated in Table 2 below.

Binder | Kd | koff | kon
B7 | < 0.2 pM | 6.71e-06 s⁻¹ | > 4e+07 M⁻¹ s⁻¹
B8 | < 2 pM | 0.000107 s⁻¹ | > 5e+07 M⁻¹ s⁻¹
B11 | < 0.2 pM | 7.92e-06 s⁻¹ | > 5e+07 M⁻¹ s⁻¹
B9 | < 0.2 pM | 7.93e-06 s⁻¹ | > 5e+07 M⁻¹ s⁻¹
B10 | < 0.2 pM | 9.71e-06 s⁻¹ | > 5e+07 M⁻¹ s⁻¹

Biological target: T1, mature human TGF-β2
Assay: as above
Protocol: as §2, §3

Binder | Kd | koff | kon
B7 | 0.265 pM | 6e-06 s⁻¹ | 2.42e+07 M⁻¹ s⁻¹
B8 | < 4 pM | 0.000218 s⁻¹ | > 5e+07 M⁻¹ s⁻¹
B11 | 1 pM | 1.22e-05 s⁻¹ | 2.29e+07 M⁻¹ s⁻¹
B9 | 0.473 pM | 1.11e-05 s⁻¹ | 2.8e+07 M⁻¹ s⁻¹
B10 | 0.529 pM | 9.86e-06 s⁻¹ | 2.37e+07 M⁻¹ s⁻¹

Biological target: T2, mature human TGF-β3
Assay: as above
Protocol: as §2, §3

Binder | Kd | koff | kon
B7 | 0.851 pM | 1.53e-05 s⁻¹ | 1.76e+07 M⁻¹ s⁻¹
B8 | 0.926 pM | 2.38e-05 s⁻¹ | 2.9e+07 M⁻¹ s⁻¹
B11 | 0.54 pM | 1.12e-05 s⁻¹ | 1.85e+07 M⁻¹ s⁻¹
B9 | 0.82 pM | 1.28e-05 s⁻¹ | 1.56e+07 M⁻¹ s⁻¹
B10 | 1.53 pM | 2.84e-05 s⁻¹ | 2.17e+07 M⁻¹ s⁻¹
